Experimental data published in publication doi:10.1101/2023.03.27.534325, “Distinct role of TGN-resident clathrin adaptors for Rab5 activation in the TGN-endosome trafficking pathway” (bioRxiv, 2023).

Tests used:
[1] = biological target: T1, GFP-tagged active Vps21p mutant (Q66L) (S. cerevisiae, UniProt P36017 1-210, Q66L); experiment: pull-down; extract of yeast cells expressing GFP-tagged Vps21p mutant incubated with GST-GNB-bound Glutathione sepharose-4B; washed; incubated with Nluc-RbNT at 200 nM; bound fractions blotted with anti-6×His or anti-GFP antibody; details: both partners purified
T1 construct: Vps21p (yeast Rab5), Saccharomyces cerevisiae, constitutively active mutant; also called Vps21Q66L; constitutively active Q66L mutant of Vps21p
T1 sequence (looked up): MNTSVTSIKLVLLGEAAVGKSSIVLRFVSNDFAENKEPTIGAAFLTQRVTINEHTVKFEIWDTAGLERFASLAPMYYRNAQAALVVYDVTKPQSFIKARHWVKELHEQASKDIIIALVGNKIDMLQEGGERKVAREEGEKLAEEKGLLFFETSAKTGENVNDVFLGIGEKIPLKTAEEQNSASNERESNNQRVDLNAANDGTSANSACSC

GFP-ALFA-Vps21p = biological target: T2, GFP-ALFA-Vps21p (S. cerevisiae, UniProt P36017 1-210); experiment: pull-down; GFP-ALFA-Vps21p from 600 μg cleared lysate of wild-type yeast held on GST-ANB Glutathione sepharose-4B; washed (20 mM Tris-HCl pH 8.0, 500 mM NaCl, 10 mM MgCl2, 0.1% NP-40); 10 pmole 6×His-RbNT-Nluc added, 1 hr in the cold room; eluted with ALFA peptide; Nluc activity read. Also run on ent3Δ ent5Δ, ent3Δ ent5Δ apl4Δ, pik1-1, pik1-1 ent3Δ, pik1-1 ypt31ts and pik1-1 ypt31ts gga1Δ gga2Δ cells.; details: both partners purified
T2 construct: Vps21p (yeast Rab5), Saccharomyces cerevisiae; The ALFA peptide lies between GFP and Vps21p, by the printed name; also called Rab5; yeast Rab5 (Vps21p); not shown: GFP, N-terminal, kept; ALFA peptide, N-terminal, kept
T2 sequence (looked up): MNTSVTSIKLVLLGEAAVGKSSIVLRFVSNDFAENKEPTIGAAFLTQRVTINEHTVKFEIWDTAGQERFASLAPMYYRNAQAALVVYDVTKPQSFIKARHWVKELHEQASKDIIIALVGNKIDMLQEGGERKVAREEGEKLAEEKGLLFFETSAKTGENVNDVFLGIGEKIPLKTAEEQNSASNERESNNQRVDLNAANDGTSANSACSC

B1: 6×His-Nano luciferase (Nluc)-Rabenosyn5 N-terminal fragment (domain or fragment, human, UniProt Q9H1K0 1-40, looked up)
chain: MASLDDPGEVREGFLCPLCLKDLQSFYQLHSHYEEEHSGE
notes: Rabenosyn-5, human, N-terminal fragment (1-40 a.a.), RbNT; The legends name it 6×His-Nluc-RbNT and the methods 6×His-RbNT-Nluc; The cloning sites (Nluc at XhoI/EcoRI, RbNT at EcoRI/HindIII of pColdI) fit His-Nluc-RbNT; also called Nluc-RbNT; 6×His-RbNT-Nluc; source: E. coli KRX, purified (Ni-NTA agarose); not shown: His6, N-terminal, kept; Nano luciferase, N-terminal, kept
[1]
  binding result: binds
GFP-ALFA-Vps21p
  binding result: binds
